The target of the assay is HCoV-229E spike (S) protein, S2 subunit fusion core (HR1/HR2) (human coronavirus 229E, UniProt P15423). Kind of assay: cell-based or functional assay.

SLTQINTTLLDLTYEMLSLQQVVKALNESYIDLKEL [peptide #1 (Peptide 1 (WT))]: the “IC50 (plaque reduction test, Vero E6 cells)” value worked out at 8.5 µg/mL.
